Experimental data published in patent publication US20200277373A1, “ANTI-TREM2 ANTIBODIES AND METHODS OF USE THEREOF” (Denali Therapeutics Inc., priority 2017, published 2020).

Legend:
TREM2 [1] = molecular target: T1, TREM2 (Homo sapiens, UniProt Q9NZC2); assay: FACS binning on human TREM2-HEK cells (competition with R&D antibody); type: binding; settings: epitope bin, 100 nM antibody
T1 construct: expressed in transfected cells
Procedure: HEK293 overexpressing human TREM2 (H6) were harvested by 0.05% trypsin and incubated at 37° C. incubator for 2 hours for surface TREM2 recovery. After incubation, cells were washed with 1×PBS and FACS buffer (PBS+0.5% BSA) with human Trustain FcX solution (Biolegend, Cat #422302) was added at a density of 10^6/mL. Cells were seeded at 100,000 cells per well in a 96-well round-bottom and incubated 20 minutes at room temperature. After incubation, anti-TREM2 antibodies (100 nM) were added to the cells and the cells were incubated for 45 minutes on ice. After incubation, rat anti-h/mTREM2-APC antibody (1:100, R&D, Cat # FAB17291A) was added to the cells, and the cells were incubated for 30 minutes on ice. After incubation, cells were washed with FACS buffer three times and resuspended in 10 μL FACS buffer, then analyzed by flow cytometry (BD FACSCanto II, San Jose, Calif.). 20,000 events were obtained for each sample. The ability to compete with R&D antibody was determined by MFI analysis compared to isotype or buffer control wells.
T1 sequence (O43914 22-113 partner, one chain of several): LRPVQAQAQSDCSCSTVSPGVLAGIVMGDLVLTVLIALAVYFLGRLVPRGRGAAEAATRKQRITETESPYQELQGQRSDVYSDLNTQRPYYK

hTREM2 [2] = molecular target: T2, hTREM2 (Homo sapiens, UniProt Q9NZC2); assay: Octet binning (competition with R&D antibody on biotinylated TREM2-His); type: binding; settings: epitope bin, 100 nM
T2 construct: The ecto domain (residues 19-172) of TREM2 (UniProtKB—Q9NZC2); secretion signal of mouse Ig kappa chain V-III (P01661 aa 1-20) (N); made in house; host or cells: Expi293F
T2 sequence (Q9NZC2 19-172): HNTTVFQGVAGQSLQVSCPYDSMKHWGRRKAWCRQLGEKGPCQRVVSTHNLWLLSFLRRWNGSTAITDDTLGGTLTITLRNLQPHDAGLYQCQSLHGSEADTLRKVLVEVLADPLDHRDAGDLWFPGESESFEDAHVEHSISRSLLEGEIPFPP
Procedure: Competition with R&D antibody was done by Octet Red using biotinylated human Trem2-His protein generated in house. Biotinylated human TREM2-His protein was captured on a streptavidin tip, and the tip was then incubated in either 100 nM of R&D Ab or buffer for 3 minutes, followed by incubation for 3 minutes in 100 nM of testing hybridoma. The difference of hybridoma binding curve with or without pre-binding to R&D antibody was analyzed to determine the epitope.

hTREM2 [3] = molecular target: T2, hTREM2; assay: Biacore T200 binding kinetics to hTREM2; settings: analyte hTREM2
Procedure: The binding of the TREM2/TfR-binding protein RS9.F6/3C35.21.17 to TREM2 and TfR was measured using SPR on a Biacore T200 instrument. To measure TfR binding, anti-human-Fab was immobilized on a CM5 chip, and the TREM2/TfR-binding protein was captured. Full-length human TfR or human TfR apical domain at serial dilution (e.g., concentrations of 1-1000 nM) was flowed over the chip (180 second association time) and then allowed to dissociate. Fitting was performed using a 1:1 binding model. To measure TREM2 binding, anti-human-Fc antibody was immobilized on a CM5 chip, and the TREM2/TfR-binding protein was captured. A range of concentrations of recombinant TREM2-His protein were flowed over the chip, and allowed to associate and dissociate. The resulting sensograms were fitted using a 1:1 Langmuir model to estimate kon and koff (FIG. 10).
The affinities of RS9.F6/3C35.21.17 for human TREM2 and TfR were determined by surface plasmon resonance using a Biacore™ T200. Biacore Series S CM5 sensor chips were immobilized with a mixture of two monoclonal mouse anti-Fab antibodies (Human Fab capture kit from GE Healthcare). Serial 3-fold dilutions of each antigen were injected at a flow rate of 30 μL/min. The binding of the antigens to captured antibody was monitored for 30 to 180 seconds and then their dissociation was monitored for 30-300 seconds in HBS-EP+running buffer (GE, # BR100669). Binding response was corrected by subtracting the RU from a blank flow cell. A 1:1 Languir model of simultaneous fitting of kon and koff was used for kinetics analysis.

TREM2 [4] = molecular target: T3, TREM2 (Homo sapiens, UniProt Q9NZC2); assay: TREM2 PAM/pSyk assay on human macrophages; type: cell-based; settings: for effect on lipid ligand activation of TREM2 (in words): FIG. 9B, human macrophages; for Slope + Liposome: pSyk, 10 nM antibody with 0, EC20, EC50, EC80 PS/PC liposomes, liposome-alone signal subtracted
T3 construct: macrophage cells that endogenously express TREM2; endogenous in cells; host or cells: primary human monocyte-derived macrophages from donor blood
T3 sequence (Q9NZC2 19-230): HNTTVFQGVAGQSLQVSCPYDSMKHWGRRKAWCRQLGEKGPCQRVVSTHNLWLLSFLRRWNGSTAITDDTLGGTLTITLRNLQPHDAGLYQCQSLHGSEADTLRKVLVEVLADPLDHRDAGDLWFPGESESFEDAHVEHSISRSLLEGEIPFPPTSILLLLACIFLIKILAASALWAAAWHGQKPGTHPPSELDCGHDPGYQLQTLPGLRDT
Procedure: Human macrophages were differentiated from donor blood using a human monocyte enrichment cocktail (Stem Cell Technologies) and culturing monocytes with human mCSF for five days in macrophage media (RPMI+10% Hyclone FBS+Glutamax+Pen/Strep+non-essential amino acids+sodium pyruvate). On the fifth day, the human macrophages were scraped from the flasks and were re-plated at 100,000 cells/well on a 96-well poly-D-lysine-coated plate in the macrophage media (without mCSF). The cells were incubated for 24 hours to adhere, then the media was removed.
Antibodies pre-mixed with lipid vesicles comprised of 70% DOPC and 30% POPS (made according to the procedure for making vesicles described above) diluted in HBSS were immediately added to the cells, and allowed to incubate for 5 minutes at 37° C. The liposome/antibody solution was removed, and 35 μL lysis buffer (Cell Signaling Technologies, CST) was added using the liquid handler. The lysate was then incubated at 4° C. for 30 minutes, then either frozen at −80° C. or immediately carried forward to a pSyk AlphaLISA assay as described above. […] The results of the assay are shown in FIG. 9B and in Table 8 below.

B1: 21D11: anti-TREM2 antibody clone; VH SEQ ID NO:14, VL SEQ ID NO:25 (antibody, V domains shown)
VH: QVQLQQSGAELARPGASVKLSCKASGYTFTSYWIQWVKQRPGQGLEWIGTIYPGDGDARYTQKFKGKATLTADKSSSTTYMQLNSLASEDSAVYYCARNGITTAGYYAMDYWGQGTSVTVSS
VL: DIQMTQSPASLSVSVGETVTITCRASENIYSNLAWYQQKQGRSPQLLVYAATNLADGVPSRFSGSGSGTQYSLKINSLQSEDFGYYYCQHFWGTPYTFGGGTKVEIK
Bin by FACS (TREM2 [1]): 1-2
Bin by Octet (hTREM2 [2]): 1-2

B2: RS9.F6: anti-TREM2 antibody clone; VH SEQ ID NO:24, VL SEQ ID NO:35 (antibody, V domains shown)
VH: QVQLQQPGAELVKPGASVKLSCKASGYTFTSYWMHWVKQSPGRGLEWIGRSDPTTGGTNYNEKFKTKATLTVDKPSSTAYMQLSSLTSDDSAVYYCVRTSGTGDYWGQGTSLTVSS
VL: DVVMTQTPLSLPVSLGDQASISCRSSQSLVHNNGNTFLHWYLQKPGQSPKLLIYKVSNRFSGVPDRFSGSGSGTDFTLKISRVEAEDLGVYFCSQTTHVPPTFGGGTKLEIK
ka (hTREM2 [3]): 150000 M⁻¹ s⁻¹
kd (hTREM2 [3]): 0.00034 s⁻¹
effect on lipid ligand activation of TREM2 (in words) (TREM2 [4]): at least an additive effect
Slope + Liposome (TREM2 [4]): 878

B3: 3D3.A1: anti-TREM2 antibody clone; VH SEQ ID NO:18, VL SEQ ID NO:29 (antibody, V domains shown)
VH: EVQLQQSGPELVKPGASVKISCKTSGYTLSEYTMHWVIQSHGKSLEWIGGVIPNSGGTSYNQKFRDKASLTVDKSSSTAYLELRSLTSEDSAVYYCARGDDSYRRGYALDYWGQGTSVTVSS
VL: DIVMSQSPSSLAVSVGEKVTMSCKSSQSLLYSSNQKSYLAWYQQKPGQSPKLLIYWASTRESGVPDRFRGSGSGTDFTLTISSVKAEDLAVYYCQQYFSYPPTFGGGTKLEIK
Bin by FACS (TREM2 [1]): 3
ka (hTREM2 [3]): 480000 M⁻¹ s⁻¹
kd (hTREM2 [3]): 0.019 s⁻¹
Bin by Octet (hTREM2 [2]): 3
effect on lipid ligand activation of TREM2 (in words) (TREM2 [4]): at least an additive effect
Slope + Liposome (TREM2 [4]): 94
